Broadly, the Km is the concentration of substrate that gives half-maximal velocity. Usually kcat stands for the number of substrate molecules converted per active site and unit of time at saturation. By kcat/Km is commonly meant the second-order rate constant that governs catalysis at low substrate concentration.

For data set [1], the system named is Nc1ncnc2c1ncn2[C@@H]1O[C@H](COP(=O)(O)OP(=O)(O)OP(=O)(O)O)[C@@H](O)[C@H]1O. The data set is described as follows: purified protein. Type of data set: biochemical, Deinococcus geothermalis. Conditions: ssDNA-dependent (80-nt oligonucleotide, 12.16 μM nucleotides), 11.56 mM MgCl2, 20 mM Tris-HCl pH 7.5, 37 °C, Hill fit, n 2.9.
In data set [2] the test system is Nc1ncnc2c1ncn2[C@H]1C[C@H](O)[C@@H](COP(=O)(O)OP(=O)(O)OP(=O)(O)O)O1. The experiment in a line: purified protein. Conditions: ssDNA-dependent (80-nt oligonucleotide, 12.16 μM nucleotides), 11.56 mM MgCl2, 20 mM Tris-HCl pH 7.5, 37 °C, Hill fit, n 1.2. In kind it is biochemical, Deinococcus geothermalis.

With “DgeRecA (Deinococcus geothermalis DSM 11300)”, in data set [1], the Michaelis-Menten constant (Km) stood at 560 ± 18 µM, the kcat was found to be 0.15 ± 0.004 s⁻¹ and the specificity constant (kcat/Km) worked out at 270 ± 12 M⁻¹ s⁻¹. Also, in data set [2], the Km amounted to 620 ± 23 µM, the catalytic constant (kcat) came to 0.21 ± 0.007 s⁻¹ and the kcat/Km worked out at 330 ± 10 M⁻¹ s⁻¹.

These data come from article PMC3103430, “RecA Proteins from Deinococcus geothermalis and Deinococcus murrayi - Cloning, Purification and Biochemical Characterisation” (BMC Molecular Biology, 2011).
